± gives the uncertainty stated by the source.
Assay: protein stability index of a GFP-peptide fusion (yeast GPS) (PSI 1-4); higher = more stable; sorted into four equal gates, so the index is relative within each strain
Method in brief: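 The protein stability index of a peptide was calculated by multiplying its read frequency in each gate by that gate's number and adding the products. The peptides were tiled 17-residue stretches of yeast proteins, fused downstream of GFP on a Cherry-expressing plasmid and carried in yeast as a pooled library. Mid-log cultures in leucine-free medium were sorted into four equal gates by GFP/Cherry ratio, and each gate's plasmids were PCR-amplified and Illumina-sequenced.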

Row | Sequence | protein stability index (doa10∆) | protein stability index (pdr5∆) | protein stability index (san1∆) | protein stability index (ubr1∆)
1 | ANNIVNIVSDAGANDTS [GRR1] | 3.2 ± 0.12 | 3.14 ± 0.074 | 3.64 ± 0.1 | 3.13 ± 0.094
2 | IIGPNGSGKSNMMDAIS [SMC1] | 3.06 ± 0.13 | 3.24 ± 0.089 | 3.03 ± 0.075 | 3.28 ± 0.05
3 | DLIRSESMLHLSIWIKN [IRR1] | 1.62 ± 0.057 | 2.01 ± 0.05 | 1.51 ± 0.098 | 1.8 ± 0.04
4 | YQKKQYKDSLALINDLL [RPN6] | 2.4 ± 0.26 | 2.68 ± 0.19 | 1.82 ± 0.21 | 2.86 ± 0.13
5 | TDIEEGMRVGVDRSKYN [RPT1] | 3.13 ± 0.14 | 3.34 ± 0.27 | 3.07 ± 0.1 | 3.13 ± 0.15
6 | ADKPFTRLTAYQELAYR [YML031W/NDC1] | 2.52 ± 0.12 | 3.17 ± 0.11 | 3.06 ± 0.18 | 3 ± 0.098
7 | KTVDSSIQPIESNIKMT [SSN2] | 2.47 ± 0.082 | 2.72 ± 0.1 | 2.86 ± 0.083 | 2.74 ± 0.052
8 | RLLITGTPLQNNLHELW [ISW2] | 2.68 ± 0.066 | 2.61 ± 0.076 | 2.99 ± 0.062 | 2.83 ± 0.064
9 | LPLYEKNTLLERLKQLT [SWP82] | 2.71 ± 0.16 | 2.87 ± 0.088 | 2.73 ± 0.1 | 2.87 ± 0.22
10 | DQFIRHVLRGVESPDKN [YCG1] |  | 3.77 ± 0.2 | 3.18 ± 0.14 | 
11 | ELEDVAVKKLYAIIINY [YCS4] | 1.84 ± 0.057 | 1.97 ± 0.065 | 1.59 ± 0.12 | 1.44 ± 0.031
12 | ALALYVDAYRRLENKLS [SRP68] | 1.78 ± 0.2 | 1.42 ± 0.11 |  | 1.52 ± 0.1
13 | IFQAKRNSNPENTVGLI [RPN10] | 3.17 ± 0.1 | 3.27 ± 0.087 | 2.92 ± 0.074 | 3.21 ± 0.11
14 | NVGKPDQSIASGNTNGA [YOR098C/NUP1] | 3 ± 0.2 | 2.09 ± 0.28 | 2.83 ± 0.085 | 2.93 ± 0.1
15 | EAVEIPVNSADGKEDVE [SME1] | 2.29 ± 0.061 | 2.8 ± 0.056 | 2.77 ± 0.04 | 2.67 ± 0.04
16 | RLENKLSEIESLDEILL [SRP68] | 2.97 ± 0.095 | 2.99 ± 0.11 | 2.92 ± 0.11 | 3 ± 0.085
17 | YDLVDNKGAKAEDVALN [NAS6] | 2.8 ± 0.14 | 3.39 ± 0.27 | 2.87 ± 0.12 | 3.07 ± 0.071
18 | EKDASGKPSFVFGASDK [YOR098C/NUP1] | 2.63 ± 0.067 | 2.52 ± 0.065 | 2.98 ± 0.076 | 2.37 ± 0.074
19 | ALEEAKLSDNISICMIL [YDL116W/NUP84] | 2.87 ± 0.076 | 3.02 ± 0.073 | 3.04 ± 0.06 | 3.21 ± 0.043
20 | KAKSNQTQREKAPLQPN [IRR1] | 3.07 ± 0.058 | 3.24 ± 0.052 | 3.09 ± 0.035 | 3.07 ± 0.05
21 | DSFSVPNRLVKELQYDN [PRE2] | 3.02 ± 0.18 | 2.94 ± 0.24 | 3.09 ± 0.11 | 3.37 ± 0.29
22 | LKTEAANVLDPSLRKLI [BRR2] | 2.44 ± 0.052 | 2.61 ± 0.059 | 2.9 ± 0.064 | 2.68 ± 0.039
23 | IHLYMLTFHTLKKANII [YLR018C/POM34] | 1.31 ± 0.051 | 1.27 ± 0.06 | 1.21 ± 0.12 | 1.09 ± 0.042
24 | ETELPTLSLPDSQDYIL [SMC1] | 3.1 ± 0.043 | 3.19 ± 0.054 | 3.11 ± 0.037 | 3.29 ± 0.055
25 | YIIQGSNTNDNISIITL [RGR1] | 2.77 ± 0.075 | 2.29 ± 0.083 | 2.19 ± 0.15 | 2.22 ± 0.063
26 | LSESLTKFFDDAKSTPL [RPN9] | 3.01 ± 0.07 | 3.26 ± 0.069 | 3.18 ± 0.055 | 3.12 ± 0.068
27 | KSRPDRPKPVSPPCYII [SNF5] | 2.93 ± 0.063 | 3.08 ± 0.057 | 2.98 ± 0.069 | 2.95 ± 0.041

Row | Sequence | protein stability index (doa10∆) | protein stability index (pdr5∆) | protein stability index (san1∆) | protein stability index (ubr1∆)
28 | GDKVVVTIWYRAPELLL [SSN3] | 1.74 ± 0.058 | 1.78 ± 0.072 | 1.74 ± 0.068 | 2.05 ± 0.044
29 | KKSVLKQVQDFEENDHP [COR1] | 2.85 ± 0.084 | 2.81 ± 0.15 | 2.81 ± 0.098 | 2.66 ± 0.067
30 | AIANTLLYLRLKNIYVS [PRP8] | 1.38 ± 0.048 | 1.53 ± 0.05 | 1.38 ± 0.084 | 1.18 ± 0.045
31 | VTPNDKIPEREEKSNEV [SIR4] |  | 3.16 ± 0.24 | 3.42 ± 0.21 | 
32 | LERTDLKSKVIDSPELL [RPN7] | 3.17 ± 0.073 | 3.01 ± 0.083 | 3.26 ± 0.085 | 3.2 ± 0.076
33 | PVDVDFNLDLDDIVSHQ [REC8] |  | 3.4 ± 0.12 |  | 
34 | TVKLYLPEILNVLCVNI [ECM29] | 1.46 ± 0.047 | 1.49 ± 0.045 | 1.5 ± 0.074 | 1.42 ± 0.045
35 | VYSFDPVGSYEREQCRA [PRE7] | 3.62 ± 0.23 | 3.47 ± 0.23 | 3.27 ± 0.13 | 3.29 ± 0.091
36 | SEIWDVSRGQSAVLLET [PRP8] | 2.83 ± 0.16 | 2.65 ± 0.15 | 3.12 ± 0.26 | 2.04 ± 0.091
37 | GAIILTKMDGHARGGGA [SRP54] | 2.88 ± 0.24 | 3.13 ± 0.16 | 2.95 ± 0.13 | 
38 | VIELPLKNPEIFQRVGI [RPT4] | 2.17 ± 0.11 | 2.16 ± 0.21 | 2.46 ± 0.12 | 2.29 ± 0.17
39 | DYPSTSLDIRHDFIKGL [NUT1] | 2.9 ± 0.14 | 2.88 ± 0.076 | 3.14 ± 0.057 | 2.56 ± 0.062
40 | DDLADDDFEEDEDEEDD [RPC31] |  | 3.31 ± 0.12 | 3.21 ± 0.09 | 3.46 ± 0.29
41 | QTSVTTNFNEITNTDET [SWP82] | 2.84 ± 0.061 | 3.09 ± 0.051 | 2.86 ± 0.042 | 3.14 ± 0.039
42 | VSKKWAAAAVCEKWAAS [RPL14A] | 2.42 ± 0.083 | 3.04 ± 0.15 | 2.6 ± 0.094 | 2.17 ± 0.077
43 | SKNTAVSKVQKRKVLEL [SRP72] | 2.66 ± 0.11 | 2.1 ± 0.16 |  | 
44 | EAQDEASLQQQQQQDLQ [SNF6] | 3.27 ± 0.14 | 3.15 ± 0.1 | 3.12 ± 0.073 | 3.2 ± 0.18
45 | GSKMEAKNEDDPAHSLN [AAR2] | 2.34 ± 0.14 | 1.27 ± 0.13 | 1.23 ± 0.26 | 1.14 ± 0.15
46 | STNEDQNNSKHTEDTVN [SRB5] | 2.39 ± 0.1 | 2.1 ± 0.077 | 1.65 ± 0.1 | 2.31 ± 0.051
47 | INDIRDDDIEKQEQEEK [YCG1] | 2.96 ± 0.082 | 2.79 ± 0.07 | 2.94 ± 0.055 | 3.12 ± 0.055
48 | QHIKVFKLDKDTSNWEL [YGL100W/SEH1] | 3.43 ± 0.15 | 3.15 ± 0.12 | 3.2 ± 0.16 | 3.62 ± 0.29
49 | ILLAGRFRGKRVVYLKH [RPL6A] | 1.69 ± 0.078 | 2.17 ± 0.061 | 2.04 ± 0.1 | 2.12 ± 0.056
50 | IDNSPQAISYLHKLQRM [GRR1] | 2.96 ± 0.058 | 2.48 ± 0.047 | 2.4 ± 0.045 | 2.69 ± 0.039
51 | TKEYLVQNLRSWETKLK [CSN9] | 2.96 ± 0.099 | 3.33 ± 0.21 | 3.1 ± 0.092 | 2.93 ± 0.13
52 | SGDESNVISSKDWELEA [YDL116W/NUP84] | 3.45 ± 0.08 | 3.36 ± 0.052 | 3.45 ± 0.06 | 3.41 ± 0.066
53 | HKHALHGTAKALAAAKK [RPL29] | 2.398 ± 0.023 | 2.425 ± 0.02 | 2.24 ± 0.023 | 2.323 ± 0.018
54 | SSNKDLEDEKMKFQESL [SMC4] |  | 2.08 ± 0.26 |  | 

— the supplement of paper PMC9732359
